Data as given in US7056694B1, “DNA encoding peripheral-type benzodiazipine receptor associated protein 7 and applications or methods of use” (Georgetown University, priority 1998, dated 2006).

Tests used:
[1] = tested on: MA-10 cells; test: Steroid biosynthesis: hCG-stimulated progesterone production in transfected MA-10 cells; format: cell-based, mouse; details: pSVzeoPAP7 vs pSVzeo empty vector transfectants, hCG 50 ng/ml, dose and time dependent
Experimental: MA-10 cells were grown in modified Waymouth's MB752/1 medium containing 15% horse serum, as described previously (Papadopoulos, V. et al., 1990, J. Biol. Chem. 265, 3772–3779). Mouse C6 glioma and mouse Y1 adrenal cortical cells were cultured in DMEM and DMEM F12 repectively, with 10% fetal bovine serum. MA10 cells were transiently transfected by electroporation (El Hefnawy, T. et al., 1996, Mol. Cell Endocrinol. 119, 207–217). Each Genepulser cuvette (0.4 cm-gap, BioRad, Hercules, Calif.) contained 8×10^6 cells in 350 μl antibiotic-free complete Waymouth's growth medium (see above), plus 30 μg plasmids DNA in 50 μl of 0.1×TE. Cells in electroporation cuvettes were electro-shocked at 330 V and at a capacitance of 950 μFd generated from Genepulser (BioRad, Hercules, Calif.). The cells were kept immediately on ice for 10 min before plated into 96 well plates.
MA-10 cells were plated into 96-well plate at the density of 2.5×10^4/well for overnight. The cells were stimulated with 50 ng/ml hCG in 0.2 ml/well serum-free medium for 2 hours. The culture medium was collected and tested for progesterone production by RIA. The assay was carried out by using anti-progesterone antisera (ICN, Costa Mesa, Calif.), following the conditions recommended by the manufacturer. […] Radioimmunoassay data was analyzed using the software provided by Wallac (EG&G Wallac, Gaithersburg, Md.). […]

[2] = biological target: PBR (Mus musculus, UniProt P50637); test: PK 11195 radioligand binding to PBR interacting with PAP20; details: PK11195 as a ligand
PBR, sequence (P50637 whole entry): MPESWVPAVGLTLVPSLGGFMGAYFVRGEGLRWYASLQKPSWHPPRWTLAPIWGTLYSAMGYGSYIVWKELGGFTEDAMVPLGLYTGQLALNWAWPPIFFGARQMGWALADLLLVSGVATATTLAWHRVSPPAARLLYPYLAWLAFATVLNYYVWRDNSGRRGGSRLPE
Experimental: ^3H-1-(2-chlorophenyl)-N-methyl-N-(1-methyl-propyl)-3-isoquinolinecarboxamide (PK 11195) (NEN, Boston, Mass.) binding studies were performed as we previously described (Papadopoulos, V. et al., 1990, supra; Garnier, M. et al., 1994, Molecular Pharmacology 45, 201–211). The dissociation constant (Kd) and the number of binding sites (Bmax) were determined by Scatchard plot analysis of the data using the LIGAND program (Munson, P. J. and Rodbard, D., 1980, Anal. Biochem. 107, 220–239).

[3] = biological target: T1, GAL4 (1-147)-PBR fusion (plasmid pGBT9+PBR), mouse peripheral-type benzodiazepine receptor as two-hybrid bait (mouse, UniProt P04386 1-147; P50637 1-169); test: yeast two-hybrid, His3 reporter (histidine prototrophy), second-round transformation of HF7c carrying pGBT9-PBR
T1 construct: Bait of the yeast two-hybrid screen, expressed in yeast HF7c; also called pGBT-PBR; fusion PBR protein
Source text: The Clontech […] two-hybrid system was applied in this study (detailed in manufacturer's instruction book). Briefly, the yeast reporter host strain HF7c was simultaneously cotransformed with both pGBT-PBR and the mouse testis cDNA library in pGAD10 plasmid by using lithium acetate high-efficiency method (Gietz, D. et al., 1992, *Nucleic Acids Res.* 20, 1425). HIS positive clones were further selected by colony lift filter assay for β-galactosidase activity. Plasmid DNA was rescued in *Escherichia coli* DH5? from yeast cells. Plasmids were retransformed into yeast HF7c cells with plasmid pGBT-PBR to test for histidine prototrophy and β-galactosidase activity (Clontech manual). The cDNA inserts from the positive clones were sequenced. The full length PAP7 cDNA was obtained by using 5' and 3' RACE kit from kit (CLONTECH, Palo Alto, Calif.).
Library plasmids from these transformants were rescued in *E. coli* strain DH5α. Both the His+ phenotype and the expression of β-galactosidase were confirmed by a second-round transformation of strain HF7c carrying pGBT9-PBR (Table 1).

B1: PAP7: PBR associated protein 7, SEQ ID NO:7; in transfection a partial sequence including the PBR binding domain in pSVzeo (protein, listed as Mus musculus)
chain: RPRRPKVELFTVVTRVKVVLFLNQLSLCKLVKDGKAFHPTYEEKLKFVALHKQVLLGPYNPDTSPEVGFFDVLGNDRRREWAALGNMSKEDAMVEFVKLLNKCCPLLSAYVASHRIEKEEEEKRRKAEEERRQREEEERERLQKEEEKRKREEEDRLRREEEERRRIEEERLRLEQQKQQIMAALNSQTAVQFQQYAAQQYPGNYEQQQILIRQLQEQHYQQYKHQAEQTQPAQQQAALQKQQEVVMAGASLPASSKVNTAGASDTLSVNGQAKTHTENSEKVLEPEAAEEALENGPKDSLPVIAAPSMWTRPQIKDFKEKIRQDADSVITVRRGEVVTVRVPTHEEGSYLFWEFATDSYDIGFGVYFEWTDSPNAAVSVHVSESSDEEEEEEENVTCEEKAKKNANKPLLDEIVPVYRRDCHEEVYAGSHQYPGRGVYLLKFDNSYSLWRSKSVYYRVYYTR
In the case of B1, the “progesterone production in response to hormonal (hCG) stimulation” value [1] is reported as “significantly reduced” and the “progesterone production in response to hormonal (hCG) stimulation” value ([1]; listed as PAP7 fragment) is reported as “significantly inhibited”.

B2: PAP20: PBR associated protein, polypeptide of 196 amino acids, SEQ ID NO:10; predominantly expressed in testis (protein, listed as Mus musculus)
chain: NSRPRRPQKRKRGAEVLAAQIVQKTRLERKKQEASVSKDAPVPTNTKRAKKQEKSPGRIASQSKPPMKKSPQKRKVNVARGRRNTRKQLQPAEKEIALHLQSEISSDGQKDGLNLSTSQQESISMIPKGPPENSVISCDSQALNMLADLALSSAAASIPSCKPRNLPCVSDLPRNNVLLTKENPLLGASDHEYHKG
With B2 the “affinity of ligand binding to PBR” value [2] was “increased the affinity of ligand binding”.

B3: PAP20 (PBR associated protein 20), two-hybrid clone in pGAD10 (other)
chain: ANFNQSGNIADSSLSFTFTNSSNGPNLITTQTNSQALSQPIASSNVHDNFMNNEITASKIDDGNNSKPLSPGWTDQTAYNAFGITTGMFNTTTMDDVYNYLFDDEDTPPNPKKENSRPRRPQKRKRGAEVLAAQIVQKTRLERKKQEASVSKDAPVPTNTKRAKKQEKSPGRIASQSKPPMKKSPQKRKVNVARGRRNTRKQLQPAEKEIALHLQSEISSDGQKDGLNLSTSQQESISMIPKGPPENSVISCDSQALNMLADLALSSAAASIPSCKPRNLPCVSDLPRNNVLLTKENPLLGASDHEYHKG
notes: range 768-881
B3: binds [3].
